Assay results taken from publication PMC1318456.

Molecular target: Non-muscle actin (99% pure; 80% β-actin, 20% γ-actin), polymerized (UniProt P60709)
Experiment: co-sedimentation; actin filaments first bundled with α-actinin for 30 min at room temperature, CRP1 then added for a further 30 min, 10,000 x g; supernatant and pellet on gel, Gelcode Blue

- fold increase of α-actinin in the actin bundles with CRP1 added, against without CRP1: 2 fold
Substance: α-actinin purified from chicken gizzard (from UniProt P05094 1-893) (natural protein)
